± gives the half width of the 95% confidence interval.
Columns and labels:
[1] = folding stability dG unfold from trypsin proteolysis; higher = more stable
Method in brief: (§1)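 K50 was inferred by Bayesian fitting of sequencing counts obtained after protease digestion of designed mini-proteins. Unfolding free energy was derived by comparison with a sequence-predicted unfolded-state K50 and a shared folded-state K50, for each protease or both combined. The mini-proteins were under 80 residues, had no cysteine, were carried in a PA-tagged cDNA display construct, and were kept only if AlphaFold2 dimer inter-PAE exceeded 15.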

[2] = folding stability dG unfold from chymotrypsin proteolysis; higher = more stable
Method in brief: as §1

[3] = folding stability dG unfold (combined trypsin and chymotrypsin); higher = more stable
Method in brief: as §1

With “SAGGSAGGMEEIVLPIPEEVAKELIASGTVTKTQTEGNRTILTKTPPSGGSTKITVVLPPSYPSSAGGSAGG [r6_654_JUSTAS]” the “folding stability dG unfold” value [1] was 1.2 ± 0.095 kcal/mol, the “folding stability dG unfold” value [2] was 1.24 ± 0.1 kcal/mol and the “folding stability dG unfold” value [3] was 1.35 ± 0.17 kcal/mol.

For “PWRPIMITVRANPNLKVDIYPPNGPQEEIPVDSPEDALKKAQKLLPPNYPIMVKVQNEGKPIATFPFWIPPS [r1_276_TrROS]”, the “folding stability dG unfold” value [1] was 2.84 ± 0.36 kcal/mol, the “folding stability dG unfold” value [2] was 2.41 ± 0.14 kcal/mol and the “folding stability dG unfold” value [3] was 2.61 ± 0.52 kcal/mol.

For “SAGTLTLELEVEVDGVLVRVRVEVRPGEEVEVRVEVEVRELPPEPEVEEEEKVELSEEDLERLRRLAEESAG [r5_958_TrROS_Hall]”, the “folding stability dG unfold” value [1] was 2.46 ± 0.071 kcal/mol, the “folding stability dG unfold” value [2] was 3.4 ± 0.086 kcal/mol and the “folding stability dG unfold” value [3] was 3.05 ± 0.1 kcal/mol.

With “SAGGSAGGPLKVELVKAEILPGNKIIRVYRAELPTETYLAVIELHLNPDGEILSAKIKVYPLPESAGGSAGG [r6_19_TrMRF]” the “folding stability dG unfold” value [1] was 2.85 ± 0.14 kcal/mol, the “folding stability dG unfold” value [2] was 3.06 ± 0.052 kcal/mol and the “folding stability dG unfold” value [3] was 3.06 ± 0.14 kcal/mol.

With “SALTLEELEKRYPELPSELLEKIKEEAEKVPKDRTLTFLLTAPDGRRVRITVTKPDTVTVTVLPPGVPEASA [r9_1024_JUSTAS]” the “folding stability dG unfold” value [1] was 4.13 ± 0.3 kcal/mol, the “folding stability dG unfold” value [2] was 4.12 ± 0.094 kcal/mol and the “folding stability dG unfold” value [3] was 4.14 ± 0.14 kcal/mol.

In the case of “SAGGMKKVRLTLVFESEEEALEALRKALEEAGVEVKVVRVERLPDGRVVVTVEIEVSDEVLEALKAASAGGS [r8_357_TrROS_Hall]”, the “folding stability dG unfold” value [1] is reported as 3.77 ± 0.068 kcal/mol, the “folding stability dG unfold” value [2] is reported as 4.01 ± 0.053 kcal/mol and the “folding stability dG unfold” value [3] is reported as 3.91 ± 0.056 kcal/mol.

For “SAGGSAGGSAGGGLVPIPVNAILLDENGVPKGTFDGYPLLKAGIPLEEFAKKYGFKVETSAGGSAGGSAGGS [r10_153_TrMRF]”, the “folding stability dG unfold” value [1] was -1.08 ± 0.37 kcal/mol, the “folding stability dG unfold” value [2] was -0.57 ± 0.24 kcal/mol and the “folding stability dG unfold” value [3] was -0.552 ± 0.16 kcal/mol.

For “SAGGSAGGSMTFEILPDGKTKTLTLDEAKELILNEVPPDTTVVNLDTGKVISAEEFLKLLGIKVSAGGSAGG [r6_937_JUSTAS]”, the “folding stability dG unfold” value [1] was 0.998 ± 0.016 kcal/mol, the “folding stability dG unfold” value [2] was 0.943 ± 0.084 kcal/mol and the “folding stability dG unfold” value [3] was 0.998 ± 0.084 kcal/mol.

For “SAGGSAGGSAGGKKVTITITIKVKEGEEITINGKKITVKPGETITITITITVPPKKKKKSAGGSAGGSAGGS [r10_949_TrROS_Hall]”, the “folding stability dG unfold” value [1] was 1.57 ± 0.13 kcal/mol, the “folding stability dG unfold” value [2] was 2.38 ± 0.31 kcal/mol and the “folding stability dG unfold” value [3] was 2.19 ± 0.41 kcal/mol.

In the case of “SAGMPAETETTVTITTETIDEKGNLSTKTYTATVRTLPDGRVLVYLENELLLIDPATGEVVAREPNYKPSAG [r14_821_JUSTAS]”, the “folding stability dG unfold” value [1] is reported as 2.3 ± 0.025 kcal/mol, the “folding stability dG unfold” value [2] is reported as 2.264 ± 0.015 kcal/mol and the “folding stability dG unfold” value [3] is reported as 2.28 ± 0.051 kcal/mol.

With “SAGGMLTGTLVDPVEGIRYTSFYDPSKPSSSITPKPIPPVPPVSLEELAERLRAATGLSREEVLALLESAGG [r13_824_JUSTAS]” the “folding stability dG unfold” value [1] was 1.02 ± 0.022 kcal/mol, the “folding stability dG unfold” value [2] was 0.396 ± 0.13 kcal/mol and the “folding stability dG unfold” value [3] was 0.76 ± 0.072 kcal/mol.

With “SAGGSAGGSAGGMEIIEKEETLDEETLKKLEEEGVPKSEATVKVTEVIYKEEYPEEGLKSAGGSAGGSAGGS [r10_1149_JUSTAS]” the “folding stability dG unfold” value [1] was 0.359 ± 0.072 kcal/mol, the “folding stability dG unfold” value [2] was -0.692 ± 0.28 kcal/mol and the “folding stability dG unfold” value [3] was -0.137 ± 0.34 kcal/mol.

In the case of “SAGGSAGGEEAPPPPVTVTVTIEVEENEDGTLTVRIEVRDEATGETRTITVTMTLEELEELAKASAGGSAGG [r6_995_TrROS_Hall]”, the “folding stability dG unfold” value [1] is reported as 2.78 ± 0.11 kcal/mol, the “folding stability dG unfold” value [2] is reported as 2.56 ± 0.13 kcal/mol and the “folding stability dG unfold” value [3] is reported as 2.78 ± 0.22 kcal/mol.

For “SAGGSAKKPKPGRLFLRYEEPEKGEVVEAVLTVYPNNVVELEVRRPDGKPVPLEKALKLLKELGLLSAGGSA [r15_872_TrMRF]”, the “folding stability dG unfold” value [1] was 1.54 ± 0.046 kcal/mol, the “folding stability dG unfold” value [2] was 2.12 ± 0.1 kcal/mol and the “folding stability dG unfold” value [3] was 1.86 ± 0.14 kcal/mol.

In the case of “SAGGSAGGSGSFSLSFPDADGVSVTLDPNTGIVTMSFNRPDANYTITLERYPDSIVVKEIKLPSAGGSAGGS [r20_60_JUSTAS]”, the “folding stability dG unfold” value [1] is reported as 1.05 ± 0.026 kcal/mol, the “folding stability dG unfold” value [2] is reported as 1.48 ± 0.1 kcal/mol and the “folding stability dG unfold” value [3] is reported as 1.32 ± 0.062 kcal/mol.

In the case of “SAGGSAGGVVLEVEIPYESEEEAREKAEEVLKELGLPESAKITKIEFYPGPGEKKSVKVYIKLESAGGSAGG [r6_284_JUSTAS]”, the “folding stability dG unfold” value [1] is reported as 1.92 ± 0.06 kcal/mol, the “folding stability dG unfold” value [2] is reported as 1.73 ± 0.018 kcal/mol and the “folding stability dG unfold” value [3] is reported as 1.83 ± 0.059 kcal/mol.

For “SAGSSTTLTFPVDTKIPDEKGNPLSSSTVTVTVNPSPGKVTATLTDPATGTVTTVEFGSLEKVEAFLSSSAG [r14_508_JUSTAS]”, the “folding stability dG unfold” value [1] was 1.29 ± 0.042 kcal/mol, the “folding stability dG unfold” value [2] was -0.218 ± 0.18 kcal/mol and the “folding stability dG unfold” value [3] was 0.809 ± 0.067 kcal/mol.

In the case of “SAGGSAGGSAEKTLTVVIKVKPNKTPEEIAKEIKKKLNLPNVEIVSIEYDKETNYITIKVKVSAGGSAGGSA [r18_481_TrROS_Hall]”, the “folding stability dG unfold” value [1] is reported as 3.6 ± 0.086 kcal/mol, the “folding stability dG unfold” value [2] is reported as 3.39 ± 0.056 kcal/mol and the “folding stability dG unfold” value [3] is reported as 3.47 ± 0.12 kcal/mol.

In the case of “SAGGSAGGSAMKPVPFEVLSVSYPVLPNGTRIRLVEIKFPETGEVKWIELSPDDPVIKALLSAGGSAGGSAG [r3_57_JUSTAS]”, the “folding stability dG unfold” value [1] is reported as 2.27 ± 0.029 kcal/mol, the “folding stability dG unfold” value [2] is reported as 1.899 ± 0.011 kcal/mol and the “folding stability dG unfold” value [3] is reported as 2.06 ± 0.086 kcal/mol.

In the case of “SAGGMVTVDTDPTEDGTLRVTVTVPRPDGPALTLTLDFPPEAGSLAVVLARADEALAAEMARRGLALSAGGS [r8_464_JUSTAS]”, the “folding stability dG unfold” value [1] is reported as -0.0072 ± 0.27 kcal/mol, the “folding stability dG unfold” value [2] is reported as 1.95 ± 0.14 kcal/mol and the “folding stability dG unfold” value [3] is reported as 1.44 ± 0.22 kcal/mol.

With “SAGGSAGGSAMTAREIADELVKEGKEVKVTVRRPGEEKEITVTKEGEPLPPGAEIVKIEEVSAGGSAGGSAG [r3_421_TrROS_Hall]” the “folding stability dG unfold” value [1] was -0.678 ± 0.19 kcal/mol, the “folding stability dG unfold” value [2] was 0.187 ± 0.08 kcal/mol and the “folding stability dG unfold” value [3] was 0.0343 ± 0.14 kcal/mol.

Reference: the supplement of paper PMC12764529
